The target in assay [1] is recombinant soluble human 17-1A-antigen (human) (UniProt P16422). Put plainly: SPR (BIACORE 2000), s17-1A immobilized on CM5, 1. set. (In SPR one partner is held on a chip, and binding of the other changes the refractive index at the surface.)
Assay [2] shares this target. Description: SPR (BIACORE 2000), s17-1A immobilized on CM5, 2. set.
Assay [3] has as its target T1, recombinant soluble human 17-1A-antigen (human, UniProt P16422 24-265).
T1 construct: extracellular domain; also called s17-1A; soluble 17-1A-antigen
T1 sequence (looked up): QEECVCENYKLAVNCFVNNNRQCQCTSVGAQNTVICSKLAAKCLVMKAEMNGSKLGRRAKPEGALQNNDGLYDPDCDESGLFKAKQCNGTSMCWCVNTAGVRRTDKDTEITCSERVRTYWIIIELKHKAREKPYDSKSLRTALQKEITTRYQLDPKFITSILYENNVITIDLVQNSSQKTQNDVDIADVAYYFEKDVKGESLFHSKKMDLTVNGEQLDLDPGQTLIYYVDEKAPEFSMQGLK
The assay is described as above. The procedure: Surface plasmon resonance measurement was performed using the BIACORE 2000 device (Biacore AB, Freiburg, Freiburg, Germany). Immobilization of recombinant soluble 17-1A-antigen in each flow cell and analysis of the interaction was carried out with an automatic method in BIACORE 2000. The antigen was covalently coupled to sensor chip CM5 via primary amine groups. After activation of the carboxylated dextran matrix of CM5 sensor chip with a single injection of […] of 0.1 M N-hydroxisuccinimide/0.4 M N-ethyl-N′-(3-dimethylaminopropyl)-carbodiimide (NHS/EDC9) through all four flow cells, flow cells 1,2,3 and 4 were successively included into the flow path during injection of s17-1A-antigen (60 μg/ml in 10 mM sodium acetate, pH 4.7). Different contact times of 17-1A to the activated surface lead to approximately 2500 response units (RU9 in flow cell 1, 14000 RU in flow cell 2, 780 RU in flow cell 3 and 290 RU in flow cell 4). Excess activated esters were blocked by injection of 85 μl 1 M ethanolamine pH 5 over all four flow cells. Binding experiments were performed at 25° C. in buffer of pH 7.4 containing 10 mM Hepes, 150 mM NaCl, 3 mM EDTA and 0.005% surfactant P20. The binding kinetics of antibodies to immobilized recombinant 17-1A were determined by injecting antibody concentrations ranging from 0.5 to […]. The sensor chip was regenerated between each run with 100 mM Glycin, 500 mM NaCl, 0.005% Tween pH3. The association and dissociation rate constants, Kon and Koff were analysed using BIA-evaluation software from Biacore AB as described (Karlsson, (1991) J Immunol Meth 145: 229-240).
Two sets of affinity determinations were carried out (1. set: M79, H79, D7.2, Panorex; 2. set: Panorex, HD70); the murine Panorex was also included in set 2 as internal reference.

B1: murine Panorex (antibody, INN chains, looked up, V domains shown)
VH: QVQLQQSGAELVRPGTSVKVSCKASGYAFTNYLIEWVKQRPGQGLEWIGVINPGSGGTNYNEKFKGKATLTADKSSSTAYMQLSSLTSDDSAVYFCARDGPWFAYWGQGTLVTVSA
VL: NIVMTQSPKSMSMSVGERVTLTCKASENVVTYVSWYQQKPEQSPKLLIYGASNRYTGVPDRFTGSGSATDFTLTISSVQAEDLADYHCGQGYSYPYTFGGGTKLEIK
In general, Kd refers to the concentration at which binding is half-saturated. Usually koff stands for a measure of how fast the partners let go of each other. By kon is commonly meant the second-order rate constant of association. Take B1: in assay [1], the Kd amounted to 200 nM, the koff came to 0.022 s⁻¹ and the kon is 110000 M⁻¹ s⁻¹. Also, in assay [2], the Kd was found to be 270 nM, the koff is 0.027 s⁻¹ and the kon worked out at 100000 M⁻¹ s⁻¹.

B2: HD70 (VD4.5huIgG1-k5.1) (antibody, V domains shown)
VH: EVQLLESGGGVVQPGRSLRLSCAASGFTFSSYGMHWVRQAPGKGLEWVAVISYDGSNKYYADSVKGRFTISRDNSKNTLYLQMNSLRAEDTAVYYCAKDMGWGSGWRPYYYYGMDVWGQGTTVTVSS
VL: ELQMTQSPSSLSASVGDRVTITCRASQSISSYLNWYQQKPGQPPKLLIYWASTRESGVPDRFSGSESGTNYTLTISSLQPEDFATYFCQQSDSLPITFGQGTRLDIQ
notes: Complete human IgG1 antibody produced in CHO cells; also called human HD70; not shown: human IgG1 heavy chain constant region
Regarding B2, in assay [3], the Kd amounted to 390 nM, the off-rate constant (koff) amounted to 0.035 s⁻¹ and the kon is 90000 M⁻¹ s⁻¹.

(Values after patent publication US20090081191A1 (MICROMET, published 2009).)
